Measurements as given in paper PMC12557607, “The mitochondrial disulphide relay substrate FAM136A safeguards IMS proteostasis and cellular fitness” (Redox Biology, 2025).

Biological target: the molecule itself
Assay: SEC; cleared native HEK293 lysate (100 mM sodium phosphate pH 8.0, 100 mM NaCl, 1 % Triton X-100) on HiLoad 16/600 Superdex 200; fractions blotted for endogenous FAM136A

B1: FAM136A (natural protein)
chain: not shown
notes: FAM136A, endogenous in HEK293 cells; soluble protein of the mitochondrial intermembrane space; also called endogenous FAM136A; source: endogenous, HEK293 lysate
- stoichiometry N: ~2
